Assay results from the Immune Epitope Database (IEDB).

Tests used:
[1] = biological target: HLA-B*57:01; assay: IEDB peptide-MHC binding, purified MHC/competitive/radioactivity; ≥ and ≤ were set here for values at or beyond the usual limits of such assays
[2] = biological target: HLA-B*57:01; assay: IEDB peptide-MHC binding, purified MHC/competitive/radioactivity; filed as Kd, often an IC50 or EC50 that approximates it; ≥ and ≤ were set here for values at or beyond the usual limits of such assays
[3] = source organism: Mammarenavirus choriomeningitidis
[4] = source organism: Human immunodeficiency virus 2
[5] = source organism: Simian immunodeficiency virus

**Q.** ATCGIFALI was tested. Which IC50 [1, 3] did it give?
**A.** 0.2 µM

**Q.** For ATIKLQSTV, which IC50 ([1]; source organism: Homo sapiens) is on record?
**A.** 0.1 µM

**Q.** IVSSLHLSI was tested. Which IC50 [1, 3] did it give?
**A.** 1 µM

**Q.** Which IC50 ([1]; source organism: Homo sapiens) does the source give for KIYEGQVEV here?
**A.** 10 µM

**Q.** For KSNGTIIHV, which IC50 ([1]; source organism: Homo sapiens) is on record?
**A.** 10 µM

**Q.** KVAKVEPAV was tested. Which Kd ([2]; source organism: Homo sapiens) did it give?
**A.** ≥ 70 µM

**Q.** For KVGWAWWTC, which IC50 [1, 4] is on record?
**A.** 3 µM

**Q.** Which Kd [2, 5] does the source give for LKSLYNTVC here?
**A.** ≥ 30 µM

**Q.** Which Kd [2, 5] does the source give for LLHSTYFPC here?
**A.** ≥ 50 µM

**Q.** MFEALPHII was tested. Which Kd [2, 3] did it give?
**A.** ≥ 50 µM

**Q.** Which Kd [2, 3] does the source give for MYGLKGPDI here?
**A.** ≥ 50 µM

**Q.** For QAQLNAWGC, which Kd [2, 5] is on record?
**A.** ≥ 40 µM

**Q.** For RARQLNYTI, which IC50 ([1]; source organism: Homo sapiens) is on record?
**A.** 0.0137 µM

**Q.** RTFHHGVRV was tested. Which IC50 ([1]; source organism: Homo sapiens) did it give?
**A.** 0.2 µM

**Q.** How did the Kd ([2]; source organism: Homo sapiens) turn out when RVAGIHKKV was run?
**A.** ≥ 70 µM

**Q.** How did the IC50 [1, 3] turn out when SIFLHLVKI was run?
**A.** 0.5 µM

**Q.** With SSCIAQDNC as the sequence, how does the Kd [2, 5] read?
**A.** ≥ 50 µM

**Q.** With TVAPFNPTV as the sequence, how does the IC50 ([1]; source organism: Homo sapiens) read?
**A.** 1 µM

**Q.** Which IC50 ([1]; source organism: Homo sapiens) does the source give for VTTDIQVKV here?
**A.** 2 µM

**Q.** How did the Kd [2, 4] turn out when WIQLGLQKC was run?
**A.** ≥ 10 µM
